From publication PMC9482650, “Quantitative fragmentomics allow affinity mapping of interactomes” (Nature Communications, 2022)

T1: APBA1_2, Q02410
T1 sequence (Q02410 742-832, limits assumed, looked up): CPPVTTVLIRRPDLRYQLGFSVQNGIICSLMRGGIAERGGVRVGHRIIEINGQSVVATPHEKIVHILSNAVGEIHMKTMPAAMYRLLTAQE

T2: GRIP1_2, Q9Y3R0
T2 sequence (Q9Y3R0 145-248, limits assumed, looked up): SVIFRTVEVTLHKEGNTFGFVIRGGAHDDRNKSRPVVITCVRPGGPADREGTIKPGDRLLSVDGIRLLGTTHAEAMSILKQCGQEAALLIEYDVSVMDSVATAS

T3: MPP2, Q14168
T3 sequence (Q14168 180-250, limits assumed, looked up): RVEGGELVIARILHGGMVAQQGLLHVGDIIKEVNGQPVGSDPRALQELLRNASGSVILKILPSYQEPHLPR

T4: APBA3_1, O96018
T4 sequence (O96018 389-490, limits assumed, looked up): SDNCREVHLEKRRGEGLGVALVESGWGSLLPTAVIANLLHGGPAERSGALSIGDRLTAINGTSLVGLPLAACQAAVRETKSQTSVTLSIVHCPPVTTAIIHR

T5: SNTB1, Q13884
T5 sequence (Q13884 107-205, limits assumed, looked up): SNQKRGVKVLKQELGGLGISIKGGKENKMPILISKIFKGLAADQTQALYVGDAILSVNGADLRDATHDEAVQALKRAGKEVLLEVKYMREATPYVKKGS

T6: TX1BP3, O14907
T6 sequence (O14907 10-122, limits assumed, looked up): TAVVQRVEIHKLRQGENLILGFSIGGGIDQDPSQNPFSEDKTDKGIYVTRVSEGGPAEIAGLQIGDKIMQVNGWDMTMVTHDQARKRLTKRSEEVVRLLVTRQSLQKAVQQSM

T7: MPDZ_5, O75970
T7 sequence (O75970 695-796, limits assumed, looked up): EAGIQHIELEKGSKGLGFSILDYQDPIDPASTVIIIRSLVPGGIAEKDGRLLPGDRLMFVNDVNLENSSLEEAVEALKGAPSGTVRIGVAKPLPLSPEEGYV

T8: APBA1_1, Q02410
T8 sequence (Q02410 651-752, limits assumed, looked up): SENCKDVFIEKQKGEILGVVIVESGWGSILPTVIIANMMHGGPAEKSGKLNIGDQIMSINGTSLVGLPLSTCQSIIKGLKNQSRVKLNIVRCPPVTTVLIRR

T9: RADIL, Q96JH8
T9 sequence (Q96JH8 971-1071, limits assumed, looked up): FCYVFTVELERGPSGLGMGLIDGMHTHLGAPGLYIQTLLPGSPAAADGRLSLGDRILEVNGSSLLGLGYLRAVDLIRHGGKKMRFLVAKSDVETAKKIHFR

T10: LNX2_2, Q8N448
T10 sequence (Q8N448 334-432, limits assumed, looked up): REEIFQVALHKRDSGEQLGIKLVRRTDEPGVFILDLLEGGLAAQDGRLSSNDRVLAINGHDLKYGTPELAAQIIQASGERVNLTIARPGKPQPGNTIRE

T11: DLG3_1, Q92796
T11 sequence (Q92796 125-227, limits assumed, looked up): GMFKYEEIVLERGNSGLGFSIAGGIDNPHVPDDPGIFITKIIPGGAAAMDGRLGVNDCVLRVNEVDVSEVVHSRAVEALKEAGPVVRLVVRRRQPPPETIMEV

T12: DLG3_2, Q92796
T12 sequence (Q92796 221-321, limits assumed, looked up): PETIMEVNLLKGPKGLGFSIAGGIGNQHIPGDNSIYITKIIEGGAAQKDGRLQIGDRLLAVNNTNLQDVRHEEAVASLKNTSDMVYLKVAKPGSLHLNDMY


Columns and labels:
Test in all cases: holdup assay
Set-up in all cases: key: below the threshold = too weak to quantify, mostly under pKd 3.1 to 4
Details in all cases: plain residues with an end cap or a label only (N-terminal biotin on a linker: ado-ado)
TJP2_1, Q9UDY2 = molecular target: TJP2_1, Q9UDY2
DLG4_3, P78352 = molecular target: DLG4_3, P78352
APBA1_2, Q02410 = molecular target: T1, APBA1_2, Q02410
LNX1_2, Q8TBB1 = molecular target: LNX1_2, Q8TBB1
GRIP1_2, Q9Y3R0 = molecular target: T2, GRIP1_2, Q9Y3R0
PICK1, Q9NRD5 = molecular target: PICK1, Q9NRD5
MPP2, Q14168 = molecular target: T3, MPP2, Q14168
CASK, O14936 = molecular target: CASK, O14936
ARHGEF12, Q9NZN5-2 = molecular target: ARHGEF12, Q9NZN5-2
APBA3_1, O96018 = molecular target: T4, APBA3_1, O96018
SNTB1, Q13884 = molecular target: T5, SNTB1, Q13884
TX1BP3, O14907 = molecular target: T6, TX1BP3, O14907
MAGI2_4, Q86UL8 = molecular target: MAGI2_4, Q86UL8
MPDZ_5, O75970 = molecular target: T7, MPDZ_5, O75970
APBA1_1, Q02410 = molecular target: T8, APBA1_1, Q02410
RADIL, Q96JH8 = molecular target: T9, RADIL, Q96JH8
PDZRN4_1, Q6ZMN7 = molecular target: PDZRN4_1, Q6ZMN7
Inadl_10, Q8NI35 = molecular target: Inadl_10, Q8NI35
LNX2_2, Q8N448 = molecular target: T10, LNX2_2, Q8N448
MAGI3_2, Q5TCQ9 = molecular target: MAGI3_2, Q5TCQ9
DLG2_2, Q15700 = molecular target: DLG2_2, Q15700
DLG3_1, Q92796 = molecular target: T11, DLG3_1, Q92796
TJP1_2, Q07157 = molecular target: TJP1_2, Q07157
DLG3_2, Q92796 = molecular target: T12, DLG3_2, Q92796
DLG1_2, Q12959 = molecular target: DLG1_2, Q12959
LAP2, Q96RT1 = molecular target: LAP2, Q96RT1
LAP2, Q96RT1, sequence (Q96RT1 other isoform, or with tags, fused parts or gaps): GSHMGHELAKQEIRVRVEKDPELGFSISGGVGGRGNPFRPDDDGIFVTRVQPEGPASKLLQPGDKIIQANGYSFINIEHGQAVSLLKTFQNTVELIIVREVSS

PICK1, Q9NRD5, sequence (Q9NRD5 17-115): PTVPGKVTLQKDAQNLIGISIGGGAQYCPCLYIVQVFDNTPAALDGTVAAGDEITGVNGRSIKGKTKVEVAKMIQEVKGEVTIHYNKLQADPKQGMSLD
ARHGEF12, Q9NZN5-2, sequence (Q9NZN5 other isoform, or with tags, fused parts or gaps): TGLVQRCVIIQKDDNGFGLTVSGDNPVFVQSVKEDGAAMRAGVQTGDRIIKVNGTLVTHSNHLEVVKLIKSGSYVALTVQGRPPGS
DLG2_2, Q15700, sequence (Q15700 189-283): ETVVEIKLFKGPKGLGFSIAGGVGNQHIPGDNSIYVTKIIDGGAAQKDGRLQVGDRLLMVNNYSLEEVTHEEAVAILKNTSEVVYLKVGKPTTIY
CASK, O14936, sequence (O14936 487-570): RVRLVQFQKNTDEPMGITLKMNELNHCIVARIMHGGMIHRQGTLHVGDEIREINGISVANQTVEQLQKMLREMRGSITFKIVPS
PDZRN4_1, Q6ZMN7, sequence (Q6ZMN7 213-318): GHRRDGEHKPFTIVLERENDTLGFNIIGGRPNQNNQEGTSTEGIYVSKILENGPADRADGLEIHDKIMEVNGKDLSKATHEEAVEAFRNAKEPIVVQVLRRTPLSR
TJP1_2, Q07157, sequence (Q07157 181-274): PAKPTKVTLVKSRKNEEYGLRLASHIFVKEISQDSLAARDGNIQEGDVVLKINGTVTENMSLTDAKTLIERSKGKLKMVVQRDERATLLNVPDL
TJP2_1, Q9UDY2, sequence (Q9UDY2 24-128): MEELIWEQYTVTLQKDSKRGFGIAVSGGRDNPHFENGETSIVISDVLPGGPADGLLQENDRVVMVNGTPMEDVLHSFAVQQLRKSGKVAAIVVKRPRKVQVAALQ
Inadl_10, Q8NI35, sequence (Q8NI35 1673-1763): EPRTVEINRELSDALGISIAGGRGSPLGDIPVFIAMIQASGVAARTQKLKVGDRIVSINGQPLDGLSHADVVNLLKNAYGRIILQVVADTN
DLG1_2, Q12959, sequence (Q12959 314-412): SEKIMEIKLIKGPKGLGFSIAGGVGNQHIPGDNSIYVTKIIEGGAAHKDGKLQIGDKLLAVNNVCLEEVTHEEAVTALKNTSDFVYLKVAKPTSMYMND
LNX1_2, Q8TBB1, sequence (Q8TBB1 371-470): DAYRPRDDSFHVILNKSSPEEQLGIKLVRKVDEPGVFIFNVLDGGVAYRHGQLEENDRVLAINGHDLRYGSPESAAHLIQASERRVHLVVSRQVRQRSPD
MAGI3_2, Q5TCQ9, sequence (Q5TCQ9 398-503): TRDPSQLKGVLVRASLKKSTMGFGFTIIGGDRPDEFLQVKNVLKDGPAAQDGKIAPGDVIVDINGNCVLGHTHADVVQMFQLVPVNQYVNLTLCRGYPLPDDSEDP
DLG4_3, P78352, sequence (P78352 306-403): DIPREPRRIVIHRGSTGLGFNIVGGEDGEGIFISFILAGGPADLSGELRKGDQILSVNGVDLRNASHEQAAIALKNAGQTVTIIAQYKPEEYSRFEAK
MAGI2_4, Q86UL8, sequence (Q86UL8 772-865): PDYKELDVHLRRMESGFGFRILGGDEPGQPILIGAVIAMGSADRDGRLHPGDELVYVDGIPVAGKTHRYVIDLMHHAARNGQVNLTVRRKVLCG

| pKd (TJP2_1, Q9UDY2) | pKd (DLG4_3, P78352) | pKd (APBA1_2, Q02410) | pKd (LNX1_2, Q8TBB1) | pKd (GRIP1_2, Q9Y3R0) | pKd (PICK1, Q9NRD5) | pKd (MPP2, Q14168) | pKd (CASK, O14936) | pKd (ARHGEF12, Q9NZN5-2) | pKd (APBA3_1, O96018) | pKd (SNTB1, Q13884) | pKd (TX1BP3, O14907) | pKd (MPDZ_5, O75970) | pKd (APBA1_1, Q02410) | pKd (RADIL, Q96JH8) | pKd (PDZRN4_1, Q6ZMN7) | pKd (Inadl_10, Q8NI35) | pKd (LNX2_2, Q8N448) | pKd (MAGI3_2, Q5TCQ9) | pKd (DLG2_2, Q15700) | Binder | other results |
| --- | --- | --- | --- | --- | --- | --- | --- | --- | --- | --- | --- | --- | --- | --- | --- | --- | --- | --- | --- | --- | --- |
| 4.02 | below the threshold | 3.58 | below the threshold | below the threshold | 4.19 | below the threshold | below the threshold | below the threshold | below the threshold | below the threshold | below the threshold | below the threshold | below the threshold | below the threshold | below the threshold | below the threshold | below the threshold | below the threshold | below the threshold | VYEVPVETKF [SLC26A3, P40879] | pKd (MAGI2_4, Q86UL8): below the threshold; pKd (DLG3_1, Q92796): below the threshold; pKd (TJP1_2, Q07157): below the threshold; pKd (DLG3_2, Q92796): 4.13; pKd (DLG1_2, Q12959): 3.59; pKd (LAP2, Q96RT1): below the threshold |
| 4.19 | below the threshold | 3.73 | below the threshold | below the threshold | below the threshold | below the threshold | below the threshold | 3.66 | below the threshold | below the threshold | below the threshold | below the threshold | below the threshold | 4.18 | below the threshold | below the threshold | 4.1 | 3.67 | below the threshold | SKQFDKNAYV [CLDN10, P78369] | pKd (MAGI2_4, Q86UL8): below the threshold; pKd (DLG3_1, Q92796): below the threshold; pKd (TJP1_2, Q07157): 3.61; pKd (DLG3_2, Q92796): below the threshold; pKd (DLG1_2, Q12959): below the threshold; pKd (LAP2, Q96RT1): below the threshold |
| below the threshold | below the threshold | below the threshold | below the threshold | below the threshold | below the threshold | below the threshold | below the threshold | below the threshold | below the threshold | below the threshold | below the threshold | below the threshold | below the threshold | below the threshold | below the threshold | below the threshold | below the threshold | below the threshold | below the threshold | NTALVESEDL [PALLS, Q8WX93;Q8WX93-1] | pKd (DLG3_1, Q92796): below the threshold; pKd (TJP1_2, Q07157): below the threshold; pKd (DLG3_2, Q92796): below the threshold; pKd (DLG1_2, Q12959): below the threshold; pKd (LAP2, Q96RT1): below the threshold |
| below the threshold | below the threshold | below the threshold | below the threshold | below the threshold | below the threshold | below the threshold | below the threshold | below the threshold | below the threshold | below the threshold | 3.97 | below the threshold | below the threshold | below the threshold | below the threshold | below the threshold | below the threshold | below the threshold | below the threshold | VKQYADVEGF [HNRNPK, P61978;P61978-2] | pKd (MAGI2_4, Q86UL8): below the threshold; pKd (DLG3_1, Q92796): below the threshold; pKd (TJP1_2, Q07157): below the threshold; pKd (DLG3_2, Q92796): 4.09; pKd (LAP2, Q96RT1): below the threshold |
| below the threshold | below the threshold | below the threshold | below the threshold | below the threshold | 4.11 | below the threshold | below the threshold | below the threshold | below the threshold | below the threshold | below the threshold | below the threshold | below the threshold | below the threshold | below the threshold | below the threshold | below the threshold | below the threshold | below the threshold | PAALPESTHM [SLC9A3, P48764] | pKd (MAGI2_4, Q86UL8): below the threshold; pKd (DLG3_1, Q92796): below the threshold; pKd (TJP1_2, Q07157): below the threshold; pKd (DLG3_2, Q92796): below the threshold; pKd (DLG1_2, Q12959): below the threshold; pKd (LAP2, Q96RT1): below the threshold |
